Experimental data: patent US12466852B2, “Method for extraction and purification of hirudin mutant and use thereof” (SUNGEN BIOSCIENCE CO., LTD., priority 2019, dated 2025)
Entries after “also recorded” stand apart in the source; their conditions may differ.

Columns and labels:
thrombin = thrombin (Homo sapiens, UniProt P00734); assay: anticoagulant activity by biochemical method determination (Chinese Pharmacopoeia 2005 edition, page 84)
Protocol: According to the analysis of anticoagulant activity by biochemical method determination, the anticoagulant activity of the prepared hirudin mutant HV2-Lys47 was calculated to be 17000 ATU/mg. For the specific determination of anticoagulant activity, reference may be made to the left column of page 84 of the Chinese Pharmacopoeia (2005 edition). Moreover, the purity of the hirudin mutant HV2-Lys47 calculated according to the proportion of color bands in gel electrophoresis had reached to 95%.

[1] = effects of drying process on the activity of hirudin mutant HV2-Lys47 in anticoagulant blood collection tubes; assay type: physicochemical; conditions: for Activity after drying / Activity loss: content 306ATU/tube
Protocol: Effects of drying process on the activity of hirudin mutant HV2-Lys47 in anticoagulant blood collection tubes were studied.
The hirudin prepared in Example 9 was dissolved in sterile pure water with a dissolution concentration of 3.4 g/100 ml pure water. 2 ml blood collection tubes were used, and each of them was sprayed with the solution of the prepared hirudin mutant HV2-Lys47 by needle spray, and then dried.
The common drying process in the art is high temperature drying: drying three times at 45° C., 50° C. and 70° C., three times for each temperature, and 60 seconds each time.
The drying method in the present application is: drying the sprayed blood collection tubes in a vacuum lyophilizer at a temperature of −50° C. and a vacuum degree of […].
The effects of high temperature drying and vacuum lyophilization methods on the activity of hirudin mutant HV2-Lys47 were as shown in Table 1 below.

blood coagulation = assay: effects of the amount of hirudin mutant HV2-Lys47 in the blood collection tube on blood coagulation; conditions: for Coagulation: blood collection volume 2
Protocol: Effects of the amount of the hirudin mutant HV2-Lys47, which was prepared and vacuum-lyophilized in Example 9, on blood coagulation were as shown in Table 2 below:
It can be seen from the above table that anticoagulant effect can be achieved when the amount of the hirudin mutant HV2-Lys47 added in the blood collection tube is 0.005 mg or more.

[2] = drying for 40 min at −50° C. and with a vacuum degree of −4 Mpa
[3] = drying three times at 45° C., 60 seconds each time
[4] = drying three times at 50° C., 60 seconds each time
[5] = drying three times at 70° C., 60 seconds each time

B1: hirudin mutant HV2-Lys47: hirudin mutant of SEQ ID NO.: 1; asparagine at position 47 of natural hirudin substituted by lysine; produced by Escherichia coli fermentation (protein)
chain: ITYTDCTESGQNLCLCEGSNVCGKGNKCILGSNGKGNQCVTGEGTPKPESHNNGDFEEIPEEYLQ
B1 showed an anticoagulant activity (thrombin; prepared in Example 1 (tube centrifuge, ethanol precipitation)) of 17000 ATU/mg, an anticoagulant activity (thrombin; prepared in Example 2 (disk centrifuge, 8% salt)) of 15800 ATU/mg and an anticoagulant activity (thrombin; prepared in Example 3 (ceramic membrane)) of 16800 ATU/mg. For the same molecule, the anticoagulant activity (thrombin; prepared in Example 4 (hollow fiber membrane)) was 16000 ATU/mg, the anticoagulant activity (thrombin; prepared in Example 5 (methanol precipitation)) was 15800 ATU/mg and the anticoagulant activity (thrombin; prepared in Example 6 (acetone precipitation)) was 17000 ATU/mg. It also gave an anticoagulant activity (thrombin; prepared in Example 7 (ammonium sulfate precipitation)) of 15000 ATU/mg, an anticoagulant activity (thrombin; prepared in Example 8 (ceramic membrane, nanofiltration, sodium chloride precipitation)) of 14500 ATU/mg and an anticoagulant activity (thrombin; prepared in Example 9 (isopropanol precipitation)) of 18000 ATU/mg. It also gave an Activity after drying [1, 2] of 304 ATU/tube, an Activity loss [1, 2] of 0.65% and an Activity after drying [1, 3] of 276 ATU/tube. For the same molecule, the Activity loss [1, 3] was 9.8%, the Activity after drying [1, 4] was 245 ATU/tube and the Activity loss [1, 4] was 19.9%. The Activity after drying [1, 5] was 160 ATU/tube, the Activity loss [1, 5] was 47.7% and the “loss of hirudin activity” value ([1]; high-temperature drying process generally used in production of a blood collection tube) was “about 10%”. The “hirudin activity loss (in words)” value ([1]; vacuum lyophilization) was “no hirudin activity loss; also recorded: not lost”, the “amount added in the blood collection tube at which anticoagulant effect can be achieved” value (blood coagulation; 2 ml blood collection) was ≥ 0.005 mg and the Coagulation (blood coagulation; amount 0.001) was “Quick coagulation”. The Coagulation (blood coagulation; amount 0.005) was “No coagulation”, the Coagulation (blood coagulation; amount 0.008) was “No coagulation” and the Coagulation (blood coagulation; amount 0.02) was “No coagulation”. For the same molecule, the Coagulation (blood coagulation; amount 0.08) was “No coagulation”, the Coagulation (blood coagulation; amount 0.16) was “No coagulation” and the Coagulation (blood coagulation; amount 0.5) was “No coagulation”. The Coagulation (blood coagulation; amount 1) was “No coagulation”, the Coagulation (blood coagulation; amount 5) was “No coagulation” and the Coagulation (blood coagulation; amount 10) was “No coagulation”. The Coagulation (blood coagulation; amount 15) was “No coagulation” and the Coagulation (blood coagulation; amount 20) was “No coagulation”.
